Experimental findings from patent US5789380A, “Agents for inhibiting accumulation of visceral fat” (Nisshin Flour Milling Co., Ltd., priority 1996, dated 1998) are described below.

Test [1] has as its target T1, human pancreatic α-amylase (human, UniProt P04746).
T1 sequence: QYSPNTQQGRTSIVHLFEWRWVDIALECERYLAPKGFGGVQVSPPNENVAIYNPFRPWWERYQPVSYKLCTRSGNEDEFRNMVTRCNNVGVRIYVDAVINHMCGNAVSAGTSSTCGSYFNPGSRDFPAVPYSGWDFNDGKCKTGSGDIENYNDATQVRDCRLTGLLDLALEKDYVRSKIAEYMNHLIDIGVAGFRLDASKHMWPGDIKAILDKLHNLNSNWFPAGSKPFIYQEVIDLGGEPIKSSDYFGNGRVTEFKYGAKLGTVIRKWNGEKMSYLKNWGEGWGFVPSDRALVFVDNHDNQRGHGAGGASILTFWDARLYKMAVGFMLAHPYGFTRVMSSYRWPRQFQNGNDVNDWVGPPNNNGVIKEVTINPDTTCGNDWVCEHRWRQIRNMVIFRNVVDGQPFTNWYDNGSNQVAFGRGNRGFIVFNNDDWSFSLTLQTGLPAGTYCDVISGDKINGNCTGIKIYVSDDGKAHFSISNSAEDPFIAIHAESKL
Briefly: cell-based or functional assay.

For test [2], the system named is human pancreatic α-amylase. Briefly: Determination of inhibitory activity against human pancreatic α-amylase. Format: biochemical. The following applies: 1 U = amount inhibiting 50% of amylase activity, pH 6.9, 37° C., soluble starch. Here is the method: The numerical values as given herein for the amylase inhibitory activity are determined by the following method, which are represented in terms of the inhibitory activity value against human pancreatic α-amylase.
Determination of inhibitory activity against human pancreatic α-amylase:
An aqueous solution of a sample and human pancreatic α-amylase were added to 20 mM piperazine-N,N'-bis(2-ethanesulfonic acid) buffer (pH 6.9) containing 50 mM NaCl, 5 mM CaCl2 and 0.02% egg white albumin. The mixture was allowed to stand at 37° C. for 30 min. and then mixed with 0.5 ml of a 1.5% soluble starch solution (pH 6.9). The resulting solution was allowed to react while maintaining at 37° C. for 10 min. and the reaction was then ceased by adding 2.5 ml of a solution (0.08M HCl and 0.4M acetic acid). To 0.2 ml of the reaction solution was added 2.5 ml of an iodine solution (0.05% KI and 0.005% iodine), and the mixture was measured for absorbance at 660 nm. The amylase was used in an amount sufficient to reduce 80% absorbance when no sample solution was contained and the amount of the amylase inhibitor sufficient to inhibit 50% amylase activity at this time was expressed as 1 amylase inhibitory unit (U).

B1: 0.19 AI (other)
chain: SGPWMCYPGQAFQVPALPACRPLLRLQCNGSQVPEAVLRDCCQQLAHISEWCRCGALYSMLDSMYKEHGAQEGQAGTGAFPRCRREVVKLTAASITAVCRLPIVVDASGDGAYVCKDVAAYPDA
For B1, the “Amylase inhibitory activity (U/mg)” value in test [1] was determined as 20300 U/mg.

B2: 0.26 AIb (other)
chain: SGPWMCYPGYAFKVPALPGCRPVLKLQCNGSQVPEAVLRDCCQQLADISEWCRCGALYSMLDSMYKEHGVQEGQAGTGAFPSCRREVVKLTAASITAVCKLPIVIDASGDGAYVCKGVAAYP
Regarding B2, the “Amylase inhibitory activity (U/mg)” value in test [1] worked out at 20500 U/mg.

B3: 0.26 AIa (other)
chain: SGPWMCYPGYAFKVPALPGCRPVLKLQCNGSQVPEAVLRDCCQQLADISEWCRCGALYSMLDSMYKEHGVQEGQAGTGAFPSCRREVVKLTAASITAVCKLPIVIDASGDGAYVCKGVAAYPDA
With B3, the “Amylase inhibitory activity (U/mg)” value in test [1] worked out at 26100 U/mg.

B4: 0.53 AI (other)
chain: SGPWMCYPGQAFQVPALPGCRPLLKLQCNGSQVPEAVLRDCCQQLADISEWPRCGALYSMLDSMYKEHGVSEGQAGTGAFPSCRREVVKLTAASITAVCRLPIVVDASGDGAYVCKDVAAYPDA
As for B4, the “Amylase inhibitory activity (U/mg)” value in test [1] was found to be 3940 U/mg.

B5: 0.53 AI: known wheat amylase inhibitor protein composed of two subunits, each identified as SEQ ID NO:4 (protein)
chain 1: SGPWMCYPGQAFQVPALPGCRPLLKLQCNGSQVPEAVLRDCCQQLADISEWPRCGALYSMLDSMYKEHGVSEGQAGTGAFPSCRREVVKLTAASITAVCRLPIVVDASGDGAYVCKDVAAYPDA
chain 2: SGPWMCYPGQAFQVPALPGCRPLLKLQCNGSQVPEAVLRDCCQQLADISEWPRCGALYSMLDSMYKEHGVSEGQAGTGAFPSCRREVVKLTAASITAVCRLPIVVDASGDGAYVCKDVAAYPDA
Take B5: the Amylase inhibitory activity in test [2] was 3,940 U/mg; in test [2] (listed as 0.58 AI), “less amylase inhibitory activity”.

B6: 0.28 AI (other)
chain: SGPWSWCNPATGYKVSALTGCRAMVKLQCVGSQVPEAVLRDCCQQLADINNEWCRCGDLSSMLRAVTQELGVREGKEVLPGCRKEVMKLTAASVPEVCKVPIPNPSGDRAGVCYGDWCAYPDV
For B6, the “Amylase inhibitory activity (U/mg)” value in test [1] turned out to be 840 U/mg.
